According to patent US20160229907A1 (published 2016):
Blank lines part the entries; values can stand above or below the binder they belong to.

Target: T1, Human PCSK9 form a' (human, UniProt Q8NBP7 31-692)
T1 construct: also called PCSK9 a'
Experiment: SPR (ProteOn XPR36), antibody captured on anti-human IgG, PCSK9 as analyte, 25 C, 1:1 model

Kd: 0.185 nM
koff: 2.29e-05 s⁻¹
kon: 124000 M⁻¹ s⁻¹
B1: Evolocumab (antibody, V domains shown)
VH: QVQLVQSGAEVKKPGASVKVSCKASGYTLTSYGISWVRQAPGQGLEWMGWVSFYNGNTNYAQKLQGRGTMTTDPSTSTAYMELRSLRSDDTAVYYCARGYGMDVWGQGTTVTVSS
VL: QSALTQPASVSGSPGQSITISCTGTSSDVGGYNSVSWYQQHPGKAPKLMIYEVSNRPSGVSNRFSGSKSGNTASLTISGLQAEDEADYYCNSYTSTSMVFGGGTKLTVL

Kd: 0.181 nM
koff: 0.000272 s⁻¹
kon: 1.5e+06 M⁻¹ s⁻¹
B2: Antibody 316P (antibody, V domains shown)
VH: EVQLVESGGGLVQPGGSLRLSCAASGFTFNNYAMNWVRQAPGKGLDWVSTISGSGGTTNYADSVKGRFIISRDSSKHTLYLQMNSLRAEDTAVYYCAKDSNWGNFDLWGRGTLVTVSS
VL: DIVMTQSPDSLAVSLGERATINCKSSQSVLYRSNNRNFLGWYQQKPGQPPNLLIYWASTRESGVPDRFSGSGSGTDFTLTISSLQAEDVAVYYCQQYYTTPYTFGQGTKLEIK
